The NTF2 design screens of Basanta et al. (2020)

Experiment: protease stability score; higher = more stable; yeast display proteolysis, trypsin and chymotrypsin;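 note: log10 excess protease needed over predicted unfolded state with 0 meaning unfolded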

Sequence | protease stability score
DEDSEFEAARRFFKAVQTGDEDEAMRQMDEDASARVGDKTYHGREHARKAMHNFRQEVDHIDVTTFDKSNGRLDVNAILEHNGKTKSVKINIQASNGHVKSVNIQDK | -0.103
DEHAQKLLEKEKDALERNNPDHFRDMVDKDARLRVGNKVIHGREQVSEDVERKRDEMRYRFEIKHVQVHNGQIDADVVQVVNVNGHPVRNKYRITVNVTNGRAKQVTVRIDEDTLRKMDR | -0.027
DEERNKEMKEVLETNDFKDLANQADENAKAQIGDKEYHGREEVRDAMKSLQERIDSVEVRDIHVQGDKFSIEAVMDVDGDKVDVVIEMRVHNGNIKFVRINARNESVKEKVEQVVS | 1.79
DDEEARDIIRLMRHGNFDNIVKQMDPNVTLRYGNNTFHGRERAKHAAQRLKTHIDHVHLKDYKVHGDKIVIDMVYNVNGKHYEVRVVMHIHNGRIQKVQWDFRDDRDETDAEKRLS | 1.28
DESAQRLFEELLKAEHDGDRDRYQQLIDPNARIQVGDKSVKGRENIKHDVYRKHKEIRFSIQSMNNKVDGDKVKVDAKVVKEHDGRPDHAQITATVRARGDKVDEIRKEERK | -0.245
DDRNNHRAKTFLTALNHNDPDQMERMVDENAQVQVGDKSYRGREDMKRWLKELIDSIRLEVHVHSLTQHNGVAVADIEETRESNGDPEEDSFTLYIQVHNGQAKRLEESKKS | 0.552
DEERSAHKFLKDMEKLMRTGDFQEVAKLFDKHAKVEVGDKRVHGREQIIRTNQQWEKRVDSVDLKIQHVSVKGEDVDVHYNMVLRYNGRNDNRVYRFVATVHGDKVRITHMELE | 0.348
DEREHAEDYARQLDKAFRTGNPDEVMKQVDKDAHFQVGERRFHGEDEFKKWAEEVFERADHIHFRVREVTRQGDKIDVDMQVDMTTNGKRETDKVRALIDTQNGRQRVDEMTFK | 0.651
DEHKYRKLAEQINKALEDGDSREMMRLMDKDVKARYGDKTVHGRDDARKLFEDRQDHVDKIQVDDYRVDGDDITVVMTYNHNGRTTVQVLVFRLRNGRIKSASVHSQ | 0.998
DEDEWRKIWTVFENNDPRKFKTMVDKHAHAEVGDTEFHGREQIQHYFERLIRRVDHIEYKSVNIHGDKMRAEVVLNVDGQNLRYVYEVTVHNGRIKMMRIRFTDEEVERQMKRIVK | 0.209
DHDALKRASQFLKAMEQGNEREAVRLVDENARVRYGDKQIHGNKQIRDWVRKMHEQARIRIEVTRVQATGDTVTVTAKVDVDVNGKPQTHDMVFRARVHNGHIKSAEFHFDEEFEKRMNS | 1.32
EEEDVKRVEEDLHNGDPDRLRDLMDKDVSVEYGDKTVNGRENAAEIWEHIRRNVDRIRIVSMHVKNGKINFDLTAEVNGTKFQIRVVWELRNGRAKSVKIEVTDEEVKKLLDRLLQ | 2.04
DDTRKAKELADRIVKAIKHGDEEYYERLVDKDVHADVGDRTVRGSETLVNTFQHEVEKADHIDAKVRSVSAHNGKIHISITVVVDVNGQQNSKEYTVIANTSNGRVRVEQINFK | 0.454
DREDHEHARTVFHNLQTGDFEEVKSLLDKNAKLTVGDRVLEGRDEIARQIRNELEEIRVEYVSVTFTVEGDKAQVHMVFKAEWNGNPADVRNVLRISQHNGRIKTMFIQISESQLEEYNR | 0.287
KEETVKTLWERMVEAVQKGDKEKVKKLGKDNVNARYNGKEYQGREELAKMLDKFKRKGAEFELKQVHVEGNTVKAEIEVHAAGTTQHVEVEAKYDGGQVEEVVVKISEEVQEMYKKG | 0.551
DETEKAKRFFDEWLKALHRGDPDEVKKLADPNVRFEVGDKEIHGRSNMAKHVTDLRKRADSFSASIDSIDIKGEKVVIDAKLTYNHNGRKTHNKVEFDAKVHNGKIKLKEIIVR | -0.257
DDSVKRLIKNLLKAWEHGDEHRARELMDEDARVTYGDQQVTGREEVARHHATRQKEIRYSIENMDVKVQGNHVEIHVEQQQTHNGEPKQFRYTMDVEARNGKIKRFEIQERR | 0.187
DDHAVRLLNDIVRALNSGDEQKVADNADPNVRIEYGDSVITGRERLMEEIQKRRKELRFEVQVDRVREKPNHVVADVQLHFNVNGQPRNMKVEVRATWTNGKLKHMHIKMDEEQVRQLKR | 1.1
DDEVKKEAEKMVEIIMHGDPDKVRNQFDPNAKMQIGDKELHGQEQLRDHLKRMNDHLRIDLKSVSARLDGNHIHLDVLFVKEHNGKPEEQRVEFVADIHNGKIVSASVEHVD | 0.54
DEEHAESVKTLFKNLRTNNEDEVEKLVDPNARMKYGDKQVHGRDEIKHMIQRLKDELHIEMDVKRMNVHNGQADLKFDITVVRNGKPDTAKANVRVQFSNGRIHDFTVQLNK | 0.347
DEERAKQVADKVFKYAINGDEEKMQKQLDPNVEYKYADTEYEGEDAARAIVRLVKQVGMEVKTQRQEVKGNTMQADFRYHNGDKEVQTTARVEYEGDKVKKVEVKVTDEVKKEAHKG | -0.068
DRELRQNLHEFWKQQETGNPDELRKMVDPNARIVIGDKTYSGMDNAAQRMAESNQELSVDIKRLDLQASNGRVTIKLDAVKNHNGQPSRKTVTQTIRIHNGRIKHISMREDG | -0.448
DRQNKAQDLAEELRRAFHTNNEDQFKKLADKNARATVGEHTFHGSDEIRKVLKELVDNVDHLRVDIHSVSVHNGQINIDMKLILDHNGRKETQEVHIRAQDHNGQNKVRNITFG | -0.154
DERQIEQLKRYLEALKTGDKEKIKELLDPNARIVYGDKEVKGRENIAEQVKKRKDDSRYDWTSVDVKTSGDKLVMTARKVNNRNGRPHERQFTADIKIKNGRMQHLQFDSTG | -0.323
DDQKVRVASELLKAIERGDPDQARELMDENAKMVIGETTFTGRDEAAKWISELKKHMRVQIQSVTFHDHNGQIVVNVTFEANINGDPFTMNLIVRVQVHNGRVQNVHYRLSEEQKRRLEQ | 0.969

Sequence | protease stability score
DKHAAQVVLEIMHAVDTGNENEVMKLIDPNARVEYGDKSITGREDIARHLIHDAKHINRRWSLKDIDVQGEKVFIKFEYKTNKNGRPDKADVNLEAKAHNGTVTTMRLQETR | 0.368
DSENVKVVREFIKAVERNDHQKLRDLVDPNATAQIGDKEYTGMDDIVTRIIETIRQLRFKIKLHHVDNHNGVVNVKAVFTFEHNGKPDKREVDIRVEITNGKVTNFQYQEHK | 2.08
DEHIQKQFQKILEAINQNNPEQFRRLVDKHAQITIGDEVVHGRDDAVRTLEKKMREMKVEIEVDSVNVQGEKLTATLKVELDINGKPNTDTVVVQMRAENGKLKSAHYRVDPTTRRKVKS | -0.179
DERDDRQLNHLFRDLVHGDPDEADKLVDPNVQFTYGDRTYSGNDELQRLIDNWKKELHVTVKDIRVENQGDKVVIHIEMEYTHNGQPTSYKMSVRATAHNGKVKHMNMTSQS | 0.103
DEEDVKRAVEIFNTNNEEDLRRLVDKHAKITVGDKDVHGRKTAETLIHKLNSQADRIHLESVHKNGEQVVIKMVADVNGEKLDFQIVFVIKNGRLTSQRNVARNEDVERTLKNLYS | -0.119
DEDLTKRFRQLIKAQETGDPDKIKNQVDKDVHAHVGDKTVSGREKLATQIHRDVQHSHFKVHVDNVRNHGNKVEVDARMVMNINGRPVTFTVNMDFTFHDGTIHRIKMSISEEDKKKTDS | 0.793
DDHKNRERAKEIAKQFQHNNPEDLRKMFDKDARLDLGSQQYHGREDVNRALSHLSKRIDHYEIKDIKVKGDNIDIQAVVTVNGRRYSLKIILRFSNGKAKEVHFHVS | 0.997
EERDEAENAIRRFLEAVEEGDEDNLREQADPNAKFDVGDKTVHGMKSYARQQIEERERIDHVDYRISSVRLEGNRADVKVKFKARVDGRTKTATATINMQRHNGRMKIKEMKIN | 0.018
DEEEAHKVQEAWKTGDPDHLRDLFDKDVRLVYGDQEVHGREELVKIFKKQQDQYDHQHIERVSLTGNRVEIRYKAVVNGQTVSRVIYIKIKNGRIKEMEIRATNPEELKEMYRLAS | 0.284
DHSKHLTNVIKRMQRLFKHGNFSEVAKQADKDVEVRVGDKTYNGRDQYVDSQRKIEHQVDNADLKFQHVDNQGDKIDVIYEFVVVHNGRHEKTTEQAVLSLHNGRVRATKIHDS | -0.102
DQDAQRQLREAMKDEESGDHRSIRENIDPNAKLDVGDKDVTGRENVAKEIKHQVDESRVKIDHYRMEVHGDRVTVTFNAVETHNGQPRRKTYQVIFKIHNGQFKKIMMRTSQ | 0.546
DERTLEQLLQDFINNMQTGDHQSLKDLLDENARVNIGDKTLSGRERVTTALKRLMRRVDHIQVDHYEVTNGEMNIDMQLEVNGVRVKVEVIIEVHNGKAKFIEFRVRNEEQWERVEG | 1.84
DEDKNKKFADKVVRALEQNNEEEMNELFPPDARVEVGDKQIHGREEIQKYMQKIRDQVDHVEVKSMEVDGDKITVHVTVHHNGTSRTVVFIFHVRNGRLTEMKVKTG | 0.04
EEEANRNVRKFEQALRHNDPHTLLELVDPNADLQIGNERIKGMHHAAKHLIDWMEEIRVQIRRVTFITRPNHAQLKRKVQAEVNGQPFEYTVEVVFNFHNGRVTEVHMRMDEDKQRKLRS | 0.12
DESAIHDVTNLLHNIQTGNPDEVDKHMDKHVKLNVGDKQISGRHRVRKKVEREKKEIRIHITVYHMRSRPGRVKIDATRENEHNGTPHSHRVIVDVRYDNGKIVNFRVEDVK | 0.366
DEELQDRFRRMIRIREEGDEQKLNEQVDPNVRLRVGDKEIKGREQLEEDQKRKNKQMRIRIKHLEVEAQGNKVRVSIHMTMRVNGRPFHFEFTANYTYHNGKLKHADVNIDPDFVREVHQ | 0.027
DEDALRNWEQFIRNYKHGDETELQKLVDPNVHVRIGDREIHGREKLREHWRRQKEHARVDINVRSLEDQGSKVQVTFKMQYQVNGQPKHNSMRMEFTVRNGRIVEASYQFDPDEHRKLQS | 1.23
DEKKVKKVADKVMRVAANGDNETARKLGKPDVTFEAGSNKMRGVEQVDKYYEKVKRQGNELHIKEVKVEGDRAKVKYDIKIGGTEMTVTAEVYIENDKVEKARIEMDEDYEKKVTKG | -0.338
DEDVQDQYRKILEAEKKNNPDHLNELMDPNVKFNVGDHTIHGREQRKEKQDELVKESRYDIKVDRVSVKGNKFVAKFKVTEEHNGRPHTTVLVIVMTVENGHVKRLQVKRDK | -0.001
DEEEQRKAAHQYRKGDPDEAHHMFDENATVEIGNFHVQGREQVREAFEHMKRRADHREVDDMKIQGDKVQVDFQIVVNGQRVKATLDAKVKNGRAQSVRVEFRDEEDRTRAERWFK | 0.042
DEEFVRTVVKAHEENDEKKFNDLMDKDVKVDIGNKELRGRDQARKQLHHLRDKIDHYHVKSVTFKGNRIQIKAEFQVDGRRISAIYQQDVHNGHITSFRVSVTDPRDKHKLDEIVG | 0.151
DEKKLQELLKKAFEAALNGDEDKLRKLLAPNVKYKYGDTEREGEDAVRLVMQIVKHIGVEVKKQEEEVKGGRMRAVFRYDNGSQTVQTTAEVQYEGDKVKEVRVEITDEIKKVMQRG | 1.17
DDKEVRRNAEIALKALRTGDEDDAMEQADEDAKMVIGDKEVHGREKLREAVKDFKEEADHVQVRHFEVQNGRVNAEMEVDVNGQKQIYVMHVEVHNGKIKEINIQHK | 0.787
DETAVKVIHKVVEAINTNNPKQVMKNMDKDVHITVGDKEYEGKEEFAKQVERDLREQRVDIDIKRLNVHNGKVHVKFTAQQQINGKPISYKATARAEVQNGKVQHMEIRVPEELQRKRES | -0.272
DEEANKNMKDMWRTGDWKQIAENADEDAHYQVGDKKFSGREQVQTFIELLQNRVDDQNIRDMEDKGNEIDIEFTVVINGRKLVLHATVQAHNGRVKSWTVKVTDRDDKRKLDEALR | 0.307
